Results published in paper PMC6295060.
Values belong to the substance of their own block, whether it stands above or below them.

Tests used:
DMAP1 [1] = biological target: DMAP1 (UniProt Q9NPF5); assay: co-IP; settings: reference: WT Bub3, mitotic arrest; sites S211
DMAP1 [2] = biological target: DMAP1 (UniProt Q9NPF5); assay: co-IP with anti-Flag antibody; settings: reference: WT Flag-rBub3; sites S211
DMAP1 [3] = biological target: DMAP1 (UniProt Q9NPF5); assay: pull-down of His-Bub3 and GST-DMAP1; settings: sites S211

binding against the reference (DMAP1 [1]): weaker
Substance: Bub3 (from UniProt O43684) Bub3 S211A, mitotic arrest

binding against the reference (DMAP1 [2]): lost
Substance: Bub3 (from UniProt O43684) Flag-rBub3 S211A

binding against the reference (DMAP1 [3]; reference: WT His-Bub3): lost
Substance: Bub3 (from UniProt O43684) His-Bub3 S211A

binding against the reference (DMAP1 [3]; reference: WT His-Bub3 without p38): gained
Substance: Bub3 (from UniProt O43684) WT His-Bub3 with purified p38
